B1: CNNM2BAT (domain or fragment, UniProt Q9H8M5 429-584, looked up)
chain: KEELNIIQGALELRTKTVEDVMTPLRDCFMITGEAILDFNTMSEIMESGYTRIPVFEGERSNIVDLLFVKDLAFVDPDDCTPLKTITKFYNHPLHFVFNDTKLDAMLEEFKKGKSHLAIVQRVNNEGEGDPFYEVLGIVTLEDVIEEIIKSEILDE
notes: Bateman module (CBS1 and CBS2) of CNNM2, purified; theoretical mass of the monomer printed as 17.72 kDa; also called Bateman module of CNNM2
B2: Pure ARL15 (gel filtration) (natural protein, UniProt Q9NXU5 1-204, looked up)
chain: MSDLRITEAFLYMDYLCFRALCCKGPPPARPEYDLVCIGLTGSGKTSLLSKLCSESPDNVVSTTGFSIKAVPFQNAILNVKELGGADNIRKYWSRYYQGSQGVIFVLDSASSEDDLEAARNELHSALQHPQLCTLPFLILANHQDKPAARSVQEIKKYFELEPLARGKRWILQPCSLDDMDALKDSFSQLINLLEEKDHEAVRM
notes: ARL15, purified; theoretical mass of the monomer printed as 19.57 kDa; The printed theoretical mass of 19.57 kDa is below that of whole ARL15, so a shortened construct is likely

Assays:
[1] = biological target: the molecule itself; assay: SEC; Superdex 200 Increase 10/300 GL, 1 mg/mL protein, 0.5 ml/min, 50 mM Hepes pH 8.5, 200 mM NaCl, 1 mM MgCl2, 1 mM TCEP; masses from a calibration line
CNNM2BAT = biological target: B1; assay: as above; details: both partners purified

stoichiometry N (CNNM2BAT)	Binder	stoichiometry N [1]
	B1	2
1 ARL15 per CNNM2BAT (2:2)	B2	2

Reference: article PMC8257531, “ARL15 modulates magnesium homeostasis through N-glycosylation of CNNMs” (Cellular and Molecular Life Sciences: CMLS, 2021)
